Changes are numbered by the printed parent chain.

Broadly, the koff is the rate constant with which the complex falls apart. A lower koff goes with slow dissociation.

T1: human common cytokine receptor γ-chain (IL-2Rγ) (human, UniProt P31785 23-262, limits assumed)
T1 construct: Recombinant human IL-2Rγ protein, coated (ELISA) or amine-coupled to a CM5 chip (SPR); also called hu IL-2R; CD132
T1 sequence: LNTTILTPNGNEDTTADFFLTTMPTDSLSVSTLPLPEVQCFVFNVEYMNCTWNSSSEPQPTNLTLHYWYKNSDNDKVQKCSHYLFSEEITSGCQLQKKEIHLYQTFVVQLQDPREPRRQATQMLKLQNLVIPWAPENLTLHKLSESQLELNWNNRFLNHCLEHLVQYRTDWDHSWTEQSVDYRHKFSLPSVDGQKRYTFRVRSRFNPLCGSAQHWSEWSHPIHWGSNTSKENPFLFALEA

T2: mouse common cytokine receptor γ-chain (IL-2Rγ) (mouse, UniProt P34902 23-263, limits assumed)
T2 construct: Recombinant mouse IL-2Rγ protein; also called mo IL-2R; mouse IL-2R gamma
T2 sequence (looked up): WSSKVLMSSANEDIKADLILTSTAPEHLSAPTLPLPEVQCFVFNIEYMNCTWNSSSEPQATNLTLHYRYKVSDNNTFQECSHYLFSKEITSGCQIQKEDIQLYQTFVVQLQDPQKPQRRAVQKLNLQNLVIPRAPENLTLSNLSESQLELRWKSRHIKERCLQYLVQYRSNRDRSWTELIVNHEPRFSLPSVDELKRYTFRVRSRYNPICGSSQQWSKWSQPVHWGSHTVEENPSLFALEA

B1: FJ1427_P035MP07A09 (VHH)
VHH: QVQLVESGGGLVQAGGSLRLSCAASGRALSRLAMGWFRQAPGKEREFVVASSWGDDTFYADSVKGRFTFSRDNAKNTVYLQMNSLQPGDTAVYYCAAAPTSFATTAYSSSNSYAYWGQGTQVTVSS
notes: tested as periplasmic extract; also called Clone nr
B2: FJ1427_P035MP07C01 (VHH)
VHH: QVQLVESGGGLVQAGDSLRLSCVASGRTLSRCAMGWFRKAPGKEREYVAISSWGGDTFYEDSVEGRFTFSRDNAKNTVYLQMNSLRPEDTAVYYCAAAPTSFATTAYSSSNSYAYWGQGTQVTVSS
notes: as for B1
B3: FJ1427_P035MP07E02 (VHH)
VHH: B1 VHH
notes: as for B1
B4: FJ1427_P035MP07D01 (VHH)
VHH: B1 VHH with A28T, L32Y, V49A, S51N, D55G, F58Y, A60T, K64E, T77A, A114S
notes: tested as periplasmic extract; also called Clone nr; 580
B5: FJ1427_P035MP07B11 (VHH)
VHH: B1 VHH with K64E, N76S, S125P
notes: as for B1
B6: FJ1427_P035MP07D08 (VHH)
VHH: B1 VHH with V2L, A28T, L32Y, V49T, S51N, D55G, F58Y, K64Q, G88E
notes: as for B1
B7: FJ1427_P035MP07D10 (VHH)
VHH: QVQLVESGGGLVQAGGSLRLSCAASGRTLSRYAMGWFRQAPGKEREFVAADSWGGDTYYDDSVEGRFTFSRDIAKNAVYLQMNSLQPEDTAVYYCAAAPTSFATTAYSSSNSYAYWGQGTQVTVSS
notes: as for B1
B8: FJ1427_P035MP07B02 (VHH)
VHH: B1 VHH with Q1E
notes: as for B1
B9: FJ1427_P035MP07B10 (VHH)
VHH: B7 VHH with Y58F, D60A, I73N, V78A, V92T, A97G, A114R
notes: tested as periplasmic extract; also called Clone nr; 650
B10: FJ1427_P035MP07B06 (VHH)
VHH: B7 VHH with Q1E, A49T, D51N, D60A, E64Q, I73N, A77T
notes: tested as periplasmic extract; also called Clone nr; 618
B11: FJ1427_P035MP07C09 (VHH)
VHH: B7 VHH with F47Y, A50I, Y58F, D60A, I73N, A77E, A97G, A114R
notes: tested as periplasmic extract; also called Clone nr; 643
B12: FJ1427_P035MP07C05 (VHH)
VHH: B1 VHH with Q1E, A14P
notes: tested as periplasmic extract; also called Clone nr; 611
B13: FJ1427_P035MP07B08 (VHH)
VHH: B7 VHH with Q1E, L11S, A14P, A49T, D51N, D60A, E64Q, I73N, A77T
notes: tested as periplasmic extract; also called Clone nr; 634
B14: FJ1427_P035MP07B04 (VHH)
VHH: B7 VHH with Q1E, A49T, D51N, D60A, E64Q, I73N, A77T
notes: tested as periplasmic extract; also called Clone nr; 602
B15: FJ1427_P035MP07C06 (VHH)
VHH: B7 VHH with A49T, D51N, D60A, E64Q, I73N, K75E, A77T
notes: as for B1
B16: FJ1427_P035MP07E01 (VHH)
VHH: B7 VHH with V5Q, A50C, Y58F, D60A, I73N, V78T, A97G, A114T, Y115V, S126L
notes: as for B1
B17: FJ1427_P035MP07D02 (VHH)
VHH: B1 VHH with V5Q
notes: tested as periplasmic extract; also called Clone nr; 588
B18: FJ1427_P035MP07D05 (VHH)
VHH: B7 VHH with Y32N, Y58F, D60A, I73N, A97G, A114R
notes: as for B1
B19: FJ1427_P035MP07D06 (VHH)
VHH: B7 VHH with Q1E, A49T, D51N, D60A, E64Q, I73N, A77T
notes: tested as periplasmic extract; also called Clone nr; 620
B20: FJ1427_P035MP07D09 (VHH)
VHH: B7 VHH with Q1E, A49T, D51N, D60A, E64Q, I73N, A77T
notes: as for B1
B21: FJ1427_P035MP07B09 (VHH)
VHH: B1 VHH
notes: as for B1
B22: FJ1427_P035MP07C03 (VHH)
VHH: B7 VHH with Q1E, A49T, D51N, D60A, E64Q, I73N, A77T
notes: as for B1
B23: FJ1427_P035MP07B03 (VHH)
VHH: B1 VHH with Q1E
notes: as for B1

The first test concerns the target T1, human common cytokine receptor γ-chain …. The experiment in a line: P.E. off-rate SPR. As for the experimental part:
(§1) SPR was performed to determine dissociation rates using Biacore 3000 instrument (GE Healthcare). Briefly, human and mouse IL-2R proteins were immobilized on carboxylmethyl dextran sensor chip (CM5) at approximately 2500 RUs using amine coupling in acetate buffer (GE Healthcare). The VHH-containing P.E. were loaded with a flow rate of 30 uL/min and the off-rates were measured over a 120s period.
Molecule B1 yielded a koff of 0.00161 s⁻¹.

On to B2, for which the koff amounted to 0.00113 s⁻¹.

B3 showed a koff of 0.00206 s⁻¹.

Molecule B4 came in with a koff of 0.00294 s⁻¹.

B5 yielded a koff of 0.00214 s⁻¹.

The molecule B6 came in with a koff of 0.00263 s⁻¹.

Molecule B7 showed a koff of 0.003 s⁻¹.

B8: the koff turned out to be 0.00232 s⁻¹.

For B9, the koff stood at 0.00175 s⁻¹.

B10 displayed a koff of 0.00322 s⁻¹.

B11 yielded a koff of 0.00137 s⁻¹.

B12 came in with a koff of 0.00182 s⁻¹.

As for B13, the koff was 0.00326 s⁻¹.

Consider B14, for which the koff amounted to 0.00277 s⁻¹.

Consider B15, for which the koff is 0.00279 s⁻¹.

In turn, B16 showed a koff of 0.00156 s⁻¹.

B17 came in with a koff of 0.00152 s⁻¹.

B18: the koff was 0.00153 s⁻¹.

For the molecule B19, the koff worked out at 0.00288 s⁻¹.

B20 registered a dissociation rate constant (koff) of 0.00447 s⁻¹.

B21 displayed a koff of 0.00168 s⁻¹.

The molecule B22 returned a koff of 0.00353 s⁻¹.

For the molecule B23, the koff was found to be 0.00278 s⁻¹.

A further test concerns the target T2, mouse common cytokine receptor γ-chain …. The experiment in a line: P.E. off-rate SPR. As for the experimental part: as §1
Regarding B1, the koff was found to be 0.0119 s⁻¹.

Turning to B2, the koff came out at 0.00694 s⁻¹.

Consider B3, for which the off-rate (koff) worked out at 0.0132 s⁻¹.

In turn, B4 displayed a koff of 0.113 s⁻¹.

Molecule B5 gave a koff of 0.0114 s⁻¹.

As for B6, the dissociation rate constant (koff) is 0.0991 s⁻¹.

The molecule B7 gave a koff of 0.125 s⁻¹.

B8 returned a koff of 0.0151 s⁻¹.

As to B9, the koff amounted to 0.0501 s⁻¹.

The molecule B10 registered a dissociation rate constant (koff) of 0.112 s⁻¹.

As to B11, the koff is 0.00703 s⁻¹.

In turn, B12 returned a koff of 0.0128 s⁻¹.

B13 had a koff of 0.144 s⁻¹.

B14 came in with a koff of 0.114 s⁻¹.

As to B15, the koff was 0.111 s⁻¹.

B16 came in with a koff of 0.0132 s⁻¹.

In turn, B17 gave an off-rate constant (koff) of 0.0127 s⁻¹.

B18 showed a koff of 0.0609 s⁻¹.

As for B19, the dissociation rate constant (koff) worked out at 0.126 s⁻¹.

As for B20, the koff came out at 0.126 s⁻¹.

Turning to B21, the koff was 0.0127 s⁻¹.

B22 showed a koff of 0.114 s⁻¹.

Consider B23, for which the koff came to 0.0132 s⁻¹.

Another test concerns the target T1, human common cytokine receptor γ-chain …. The experiment in a line: P.E. binding ELISA. Here is the method: (§2) In a binding ELISA, human or mouse IL-2Rα, IL-2Rβ and IL-2Rγ proteins were coated directly on maxisorp microtiter plates overnight at 4° C. Free binding sites were blocked using 4% Marvel in PBS for 1 hour. Next, 1:5 dilution of P.E. in 1% Marvel/PBS were added to wells and incubated for 1 hour. […] Binding specificity was determined based on O.D. at 450 nm values compared to negative controls.
On the technique in general: In an ELISA, binding on a coated surface is turned into a signal by an enzyme label.
Regarding B1, the “PE binding ELISA OD” value was 0.518 OD450 nm.

For B2, the “PE binding ELISA OD” value was found to be 0.945 OD450 nm.

In the case of B3, the “PE binding ELISA OD” value stood at 0.62 OD450 nm.

Take B4: the “PE binding ELISA OD” value stood at 1.19 OD450 nm.

On to B5, for which the “PE binding ELISA OD” value stood at 1.25 OD450 nm.

Take B6: the “PE binding ELISA OD” value is 1.03 OD450 nm.

Consider B7, for which the “PE binding ELISA OD” value was determined as 0.734 OD450 nm.

B8: the “PE binding ELISA OD” value is 1.32 OD450 nm.

In the case of B9, the “PE binding ELISA OD” value amounted to 0.716 OD450 nm.

As to B10, the “PE binding ELISA OD” value worked out at 0.902 OD450 nm.

Regarding B11, the “PE binding ELISA OD” value was 0.723 OD450 nm.

In the case of B12, the “PE binding ELISA OD” value was determined as 0.479 OD450 nm.

Turning to B13, the “PE binding ELISA OD” value was determined as 0.425 OD450 nm.

With B14, the “PE binding ELISA OD” value was 0.97 OD450 nm.

For the molecule B15, the “PE binding ELISA OD” value was 0.319 OD450 nm.

Regarding B16, the “PE binding ELISA OD” value was determined as 0.83 OD450 nm.

Regarding B17, the “PE binding ELISA OD” value came to 0.599 OD450 nm.

As to B18, the “PE binding ELISA OD” value turned out to be 0.733 OD450 nm.

Regarding B19, the “PE binding ELISA OD” value was found to be 0.919 OD450 nm.

Consider B20, for which the “PE binding ELISA OD” value was determined as 0.865 OD450 nm.

As for B21, the “PE binding ELISA OD” value was found to be 1.27 OD450 nm.

In the case of B22, the “PE binding ELISA OD” value worked out at 0.982 OD450 nm.

Consider B23, for which the “PE binding ELISA OD” value turned out to be 1.55 OD450 nm.

Another test has as its target T2, mouse common cytokine receptor γ-chain …. Nature of the test: P.E. binding ELISA. Here is the method:
as §2
As for B1, the “PE binding ELISA OD” value came to 0.055 OD450 nm.

Take B2: the “PE binding ELISA OD” value worked out at 0.923 OD450 nm.

As to B3, the “PE binding ELISA OD” value amounted to 0.061 OD450 nm.

Take B4: the “PE binding ELISA OD” value came to 0.051 OD450 nm.

B5: the “PE binding ELISA OD” value amounted to 0.246 OD450 nm.

In the case of B6, the “PE binding ELISA OD” value came to 0.05 OD450 nm.

Take B7: the “PE binding ELISA OD” value is 0.048 OD450 nm.

As to B8, the “PE binding ELISA OD” value was 0.061 OD450 nm.

Take B9: the “PE binding ELISA OD” value was found to be 0.059 OD450 nm.

On to B10, for which the “PE binding ELISA OD” value worked out at 0.045 OD450 nm.

On to B11, for which the “PE binding ELISA OD” value came out at 0.755 OD450 nm.

Consider B12, for which the “PE binding ELISA OD” value came to 0.047 OD450 nm.

As for B13, the “PE binding ELISA OD” value turned out to be 0.044 OD450 nm.

Consider B14, for which the “PE binding ELISA OD” value stood at 0.047 OD450 nm.

Turning to B15, the “PE binding ELISA OD” value came to 0.045 OD450 nm.

With B16, the “PE binding ELISA OD” value worked out at 0.139 OD450 nm.

As to B17, the “PE binding ELISA OD” value is 0.057 OD450 nm.

Turning to B18, the “PE binding ELISA OD” value is 0.054 OD450 nm.

In the case of B19, the “PE binding ELISA OD” value stood at 0.045 OD450 nm.

Turning to B20, the “PE binding ELISA OD” value came out at 0.045 OD450 nm.

For the molecule B21, the “PE binding ELISA OD” value came to 0.082 OD450 nm.

B22: the “PE binding ELISA OD” value was found to be 0.046 OD450 nm.

For the molecule B23, the “PE binding ELISA OD” value came to 0.058 OD450 nm.
